Experiments:
[1] = molecular target: T1, human interferon alpha 14 (human, UniProt P01570 24-189); assay: immunoaffinity column loaded with crude leukocyte interferon alpha; RP-HPLC of eluate
T1 construct: One entry serves both the natural leukocyte protein and the bought recombinant protein; also called α14; IFN-α14
Experimental: The antibodies were all bound to CNBr-activated Sepharose gel. […] Impurities and unbound material were removed from the column by washing with buffer. Interferon alpha was eluted with citric-acid buffer, pH2. Unbound, flow-through fractions, and eluate fractions were analysed for interferon alpha using a specific ELISA. The eluate fraction was analysed for its complement of interferon alpha proteins using reversed-phase HPLC (RP-HPLC). Interferon alpha specific activity was determined using a cytopathic protective effect assay with MDBK cells. All samples were analysed twice. The experiments were repeated with a second batch of concentrated crude leukocyte interferon alpha.
Rather, the interferon alpha protein pattern is compared to assess whether all the expected peaks are present.

[2] = molecular target: concentrated crude leukocyte interferon alpha; assay: pilot-scale immunoaffinity chromatography, crude interferon from lab fermenter, experiment P-434
[3] = molecular target: concentrated crude leukocyte interferon alpha; assay: capacity of immunoaffinity gel, 7 mg antibody/mL CNBr-activated Sepharose FF
[4] = molecular target: concentrated crude leukocyte interferon alpha; assay: immunoaffinity chromatography, antibody on CNBr-Sepharose; interferon alpha ELISA of fractions
[5] = molecular target: concentrated crude leukocyte interferon alpha; assay: immunoaffinity chromatography of crude leukocyte interferon alpha (Example 1)
[6] = molecular target: T2, human interferon alpha 16 (human, UniProt P05015 24-189); assay: 3-A3-2 immunoaffinity column, 10,000 IU load; Daudi cell anti-proliferative assay of fractions
T2 construct: also called α16; IFN-α16

human interferon alpha 5 = molecular target: T3, human interferon alpha 5 (human, UniProt P01569 24-189, limits assumed); assay: as above
T3 construct: also called α5; IFN-α5

[7] = molecular target: concentrated crude leukocyte interferon alpha; assay: immunoaffinity chromatography, antibody on CNBr-Sepharose; interferon alpha ELISA of fractions; second row for this antibody
human interferon alpha 1 = molecular target: T4, human interferon alpha 1 (human, UniProt P0DY56 24-189); assay: immunoaffinity chromatography (Examples 1, 3, 4 and 5)
T4 construct: also called α1; IFN-α1

[8] = molecular target: concentrated crude leukocyte interferon alpha; assay: pilot-scale immunoaffinity chromatography, crude interferon batch K-543, experiment P-429

binding result [1]: binds
IFN-α eluate yield (%) [2]: 70%
interferon capacity [3]: 22.5 MIU/ml gel
Flow-through (%) [4]: 1%
eluate (IU) [4]: 16.5 IU
recovery (%) [4]: 66%
Flow-through (%) [5]: < 5%
binding result [6]: binds
binding result (human interferon alpha 5): binds
Flow-through (%) [7]: 5%
eluate (IU) [7]: 17 IU
recovery (%) [7]: 61%
binding result (human interferon alpha 1): binds
IFN-α eluate yield (%) [8]: 73%
B1: Monoclonal antibody 3-A3-2 (antibody, mouse IgG1, V domains shown)
VH: QVQLQESGTVLARPGASVKMSCKASGYSFTTYWMHWVKQRPGQGLEWIGVIYPGNGDTTYNQKFKDKAKLTAVTSANTAYMELSSLTNEDSAVYFCTRNYKYDYYTMDYWGQGTTVTVSS
VL: DIVLTQSPASLAVSLGQRATISCRASKSVSTSGHSYMHWYQQKPGQTPKLLIYLASNLESGVPARFSGSGSGTDFTLNIHPVEEEDAATYYCQHSGELPFTFGSGTKLEIK
notes: Murine IgG1/kappa from hybridoma 3-A3-2 (ECACC 05030201); also called monoclonal 3-A3-2; 3A32 Ab
